In experiment [1] the target is Gα13 (GNA13, full-length, from the cDNA resource center) (UniProt Q14344).
For experiment [2] the target is unchanged. This is another data set of the same source.
For experiment [3] the target is unchanged. This is another data set of the same source.
Experiment [4] addresses Gα12 (GNA12, full-length, from the cDNA resource center) (UniProt Q03113).
Experiment [5] has the same target. The source holds these as a separate data set.
Experiment [6] has the same target. The source holds these as a separate data set.

Chain of UniProt Q03113 (Q03113 whole entry): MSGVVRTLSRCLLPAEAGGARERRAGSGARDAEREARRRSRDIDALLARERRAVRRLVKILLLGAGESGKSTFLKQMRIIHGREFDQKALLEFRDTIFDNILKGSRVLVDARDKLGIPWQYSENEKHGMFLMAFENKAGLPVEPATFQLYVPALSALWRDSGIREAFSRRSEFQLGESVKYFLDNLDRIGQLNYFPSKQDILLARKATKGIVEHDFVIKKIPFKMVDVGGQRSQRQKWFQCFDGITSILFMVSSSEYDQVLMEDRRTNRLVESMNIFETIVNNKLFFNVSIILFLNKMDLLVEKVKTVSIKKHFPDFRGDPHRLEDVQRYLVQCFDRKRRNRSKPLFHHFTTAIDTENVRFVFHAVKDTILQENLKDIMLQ
Chain of UniProt Q14344 (Q14344 whole entry): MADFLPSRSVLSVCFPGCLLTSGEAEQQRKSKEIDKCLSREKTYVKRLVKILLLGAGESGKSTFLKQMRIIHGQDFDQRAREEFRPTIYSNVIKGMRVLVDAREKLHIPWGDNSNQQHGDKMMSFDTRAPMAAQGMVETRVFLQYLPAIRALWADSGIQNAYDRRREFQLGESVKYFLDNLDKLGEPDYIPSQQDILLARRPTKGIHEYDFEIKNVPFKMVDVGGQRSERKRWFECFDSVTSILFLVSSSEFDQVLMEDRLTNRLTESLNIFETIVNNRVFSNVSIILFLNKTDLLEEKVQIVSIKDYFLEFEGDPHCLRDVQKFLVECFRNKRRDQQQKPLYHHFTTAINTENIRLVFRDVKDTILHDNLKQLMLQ

“PDZ-RhoGEF-RlucII (Gα12/13 binding domain of human PDZ-RhoGEF, residues 281–483) (from UniProt O15085 281-483) (domain or fragment)” gave an ebBRET between PDZ-RhoGEF-RlucII and rGFP-CAAX (recruitment to the plasma membrane), ΔGα12/13 cells with Gα13, constitutive, GPR56-WT DNA up to 250 ng; no increase without Gα13 in experiment [1] of 0.44 BRET ratio. Moreover, in experiment [2], the ebBRET between PDZ-RhoGEF-RlucII and rGFP-CAAX, ΔGα12/13 cells with Gα13 and GPR56-WT, time course after 20 nM 10C7, maximal ΔBRET after 24 min was 0.7 ΔBRET. In experiment [3], the ebBRET between PDZ-RhoGEF-RlucII and rGFP-CAAX, ΔGα12/13 cells with Gα13 and GPR56-T383A, time course after 20 nM 10C7, ΔBRET max was 0.5 ΔBRET.

B1: p115-RhoGEF-RlucII (Gα12/13 binding domain of human p115-RhoGEF, residues 1–244) (domain or fragment)
chain: MEDFARGAASPGPSRPGLVPVSIIGAEDEDFENELETNSEEQNSQFQSLEQVKRRPAHLMALLQHVALQFEPGPLLCCLHADMLGSLGPKEAKKAFLDFYHSFLEKTAVLRVPVPPNVAFELDRTRADLISEDVQRRFVQEVVQSQQVAVGRQLEDFRSKRLMGMTPWEQELAQLEAWVGRDRASYEARERHVAERLLMHLEEMQHTISTDEEKSAAVVNAIGLYMRHLGVRTKSGDKKSGRNF
In experiment [4], B1 returned an ebBRET between p115-RhoGEF-RlucII and rGFP-CAAX (recruitment to the plasma membrane), ΔGα12/13 cells with Gα12, constitutive, GPR56-WT DNA up to 250 ng; no increase without Gα12 of 0.44 BRET ratio; an ebBRET between p115-RhoGEF-RlucII and rGFP-CAAX, ΔGα12/13 cells with Gα12, constitutive, increasing GPR56-T383A DNA, maximum of 0.228 BRET ratio. The ebBRET between p115-RhoGEF-RlucII and rGFP-CAAX, ΔGα12/13 cells with Gα12 and GPR56-WT, time course after 20 nM 10C7, maximum ΔBRET at 8 min in experiment [5] is 0.19 ΔBRET. Besides, the ebBRET between p115-RhoGEF-RlucII and rGFP-CAAX, ΔGα12/13 cells with Gα12 and GPR56-T383A, time course after 20 nM 10C7, ΔBRET max in experiment [6] is 0.2 ΔBRET.
